{"source": "patent US5756454", "key": {"[1]": {"target": "collagen receptor on human platelets (human)"}, "[2]": {"target": "thrombin"}, "[3]": {"target": "collagen receptor on human platelets (human)", "remark": "listed apart in the source"}, "[4]": {"target": "collagen receptor on human platelets (human)", "remark": "listed apart in the source"}, "[5]": {"target": "collagen receptor (VL A 2) on MTLn3 cells (rat mammary tumor cells) (rat)"}, "[6]": {"target": "collagen receptor on human platelets (human)", "remark": "listed apart in the source"}, "[7]": {"target": "collagen receptor (VL A 2) on MTLn3 cells (rat mammary tumor cells) (rat)", "remark": "listed apart in the source"}}, "data": [{"substance": "collagen-induced platelet aggregation inhibitor isolated from saliva of Triatoma pallidipennis", "values": [{"measurement": "released ATP, % of total ATP content, of collagen-treated platelets (30 µl = 10 µg protein of \"Superose\"-pool; 49% without inhibitor) (% of total ATP content)", "setting": "[1]", "result": 2}, {"measurement": "maximal aggregation of filtrated platelets induced with thrombin (0.06 U/ml), with 200 µl \"Superose\"-pool (control 75%) (% maximal aggregation)", "setting": "[2]", "result": 75}, {"measurement": "adherent platelets per mm^2 on collagen type I (50 µl of \"Superose\"-pool at 0.5 mg protein/ml; 13500 without inhibitor) (adherent platelets per mm^2)", "setting": "[3]", "result": 6500}, {"measurement": "IC50 of inhibition of collagen-induced platelet aggregation (highly purified protein)", "setting": "[4]", "result": 0.05, "unit": "µM"}, {"measurement": "IC50 of inhibition of collagen-induced platelet aggregation (partially purified \"Superose\"-pool)", "setting": "[4]", "result": 2.5, "unit": "µg per ml"}, {"measurement": "IC50 of adhesion-inhibition of metastatic tumor cells to collagen (highly purified protein)", "setting": "[5]", "result": 0.1, "unit": "µM"}, {"measurement": "inhibition of collagen-induced aggregation of human platelets (platelet-rich plasma, aggregometer; \"Superose\"-pool) (% inhibition of aggregation)", "setting": "[6]", "result": 70}, {"measurement": "cell attachment (cpm) of 51Cr-labelled MTLn3 cells to collagen type III (10 µl of \"Superose\"-pool; 2215 cpm without inhibitor)", "setting": "[7]", "result": 1080, "unit": "cpm"}]}]}
